Experiment: GEN1046 in combination with docetaxel in metastatic NSCLC subjects, adverse effects
Type: in vivo, human
Method: Docetaxel was administered at a dose of 55 mg/m^2 or 75 mg/m^2 depending on the number of prior Dose Limiting Toxicities observed. The maximum tested dose of docetaxel was be 75 mg/m^2.
Subjects with a histological or cytological diagnosis of non-squamous NSCLC must not have an EGFR-sensitizing mutation and/or ALK translocation/ROS1 rearrangement. EGFR sensitizing mutations are those mutations that are amenable to treatment with an approved TKI. Documentation of EGFR and ALK status should be available per local assessment.

[1] = GEN1046 in combination with Docetaxel

Question: What does the source list for “GEN1046: PD-L1×4-1BB bispecific antibody: PD-L1-547-FEAL combined with CD137-009-HC7LC2-FEAR (SEQ ID NOs: 1, 5, 21, 19; 8, 12, 22, 20)”?
Answer: Anemia Grade 5, GEN1046-related (GEN1046 + 75 mg/m^2 Docetaxel): 0; Blood thyroid stimulating hormone abnormal Grade 1, GEN1046-related (GEN1046 + 75 mg/m^2 Docetaxel): 1; Blood thyroid stimulating hormone abnormal Grade 2, GEN1046-related (GEN1046 + 75 mg/m^2 Docetaxel): 0; Blood thyroid stimulating hormone abnormal Grade 3, GEN1046-related (GEN1046 + 75 mg/m^2 Docetaxel): 0; Blood thyroid stimulating hormone abnormal Grade 4, GEN1046-related (GEN1046 + 75 mg/m^2 Docetaxel): 0; Blood thyroid stimulating hormone abnormal Grade 5, GEN1046-related (GEN1046 + 75 mg/m^2 Docetaxel): 0; Cough Grade 1, GEN1046-related (GEN1046 + 75 mg/m^2 Docetaxel): 1; Cough Grade 2, GEN1046-related (GEN1046 + 75 mg/m^2 Docetaxel): 0; Cough Grade 3, GEN1046-related (GEN1046 + 75 mg/m^2 Docetaxel): 0; Cough Grade 4, GEN1046-related (GEN1046 + 75 mg/m^2 Docetaxel): 0; Cough Grade 5, GEN1046-related (GEN1046 + 75 mg/m^2 Docetaxel): 0; Dry mouth Grade 1, GEN1046-related (GEN1046 + 75 mg/m^2 Docetaxel): 1; Dry mouth Grade 2, GEN1046-related (GEN1046 + 75 mg/m^2 Docetaxel): 0; Dry mouth Grade 3, GEN1046-related (GEN1046 + 75 mg/m^2 Docetaxel): 0; Dry mouth Grade 4, GEN1046-related (GEN1046 + 75 mg/m^2 Docetaxel): 0; Dry mouth Grade 5, GEN1046-related (GEN1046 + 75 mg/m^2 Docetaxel): 0; Dyspnea Grade 1, GEN1046-related (GEN1046 + 75 mg/m^2 Docetaxel): 1; Dyspnea Grade 2, GEN1046-related (GEN1046 + 75 mg/m^2 Docetaxel): 2; Dyspnea Grade 3, GEN1046-related (GEN1046 + 75 mg/m^2 Docetaxel): 0; Dyspnea Grade 4, GEN1046-related (GEN1046 + 75 mg/m^2 Docetaxel): 0; Dyspnea Grade 5, GEN1046-related (GEN1046 + 75 mg/m^2 Docetaxel): 0; Fatigue Grade 1, GEN1046-related (GEN1046 + 75 mg/m^2 Docetaxel): 1; Fatigue Grade 2, GEN1046-related (GEN1046 + 75 mg/m^2 Docetaxel): 2; Fatigue Grade 3, GEN1046-related (GEN1046 + 75 mg/m^2 Docetaxel): 0; Fatigue Grade 4, GEN1046-related (GEN1046 + 75 mg/m^2 Docetaxel): 0; Fatigue Grade 5, GEN1046-related (GEN1046 + 75 mg/m^2 Docetaxel): 0; Gastroesophageal reflux disease Grade 1, GEN1046-related (GEN1046 + 75 mg/m^2 Docetaxel): 1; Gastroesophageal reflux disease Grade 2, GEN1046-related (GEN1046 + 75 mg/m^2 Docetaxel): 0; Gastroesophageal reflux disease Grade 3, GEN1046-related (GEN1046 + 75 mg/m^2 Docetaxel): 0; Gastroesophageal reflux disease Grade 4, GEN1046-related (GEN1046 + 75 mg/m^2 Docetaxel): 0; Gastroesophageal reflux disease Grade 5, GEN1046-related (GEN1046 + 75 mg/m^2 Docetaxel): 0; Hiccups Grade 1, GEN1046-related (GEN1046 + 75 mg/m^2 Docetaxel): 0; Hiccups Grade 2, GEN1046-related (GEN1046 + 75 mg/m^2 Docetaxel): 1; Hiccups Grade 3, GEN1046-related (GEN1046 + 75 mg/m^2 Docetaxel): 0; Hiccups Grade 4, GEN1046-related (GEN1046 + 75 mg/m^2 Docetaxel): 0; Hiccups Grade 5, GEN1046-related (GEN1046 + 75 mg/m^2 Docetaxel): 0; Hyperglycemia Grade 1, GEN1046-related (GEN1046 + 75 mg/m^2 Docetaxel): 1; Hyperglycemia Grade 2, GEN1046-related (GEN1046 + 75 mg/m^2 Docetaxel): 0; Hyperglycemia Grade 3, GEN1046-related (GEN1046 + 75 mg/m^2 Docetaxel): 1; Hyperglycemia Grade 4, GEN1046-related (GEN1046 + 75 mg/m^2 Docetaxel): 0; Hyperglycemia Grade 5, GEN1046-related (GEN1046 + 75 mg/m^2 Docetaxel): 0; Lipase increased Grade 1, GEN1046-related (GEN1046 + 75 mg/m^2 Docetaxel): 0; Lipase increased Grade 2, GEN1046-related (GEN1046 + 75 mg/m^2 Docetaxel): 1; Lipase increased Grade 3, GEN1046-related (GEN1046 + 75 mg/m^2 Docetaxel): 0; Lipase increased Grade 4, GEN1046-related (GEN1046 + 75 mg/m^2 Docetaxel): 0; Lipase increased Grade 5, GEN1046-related (GEN1046 + 75 mg/m^2 Docetaxel): 0; Musculoskeletal chest pain Grade 1, GEN1046-related (GEN1046 + 75 mg/m^2 Docetaxel): 0; Musculoskeletal chest pain Grade 2, GEN1046-related (GEN1046 + 75 mg/m^2 Docetaxel): 1; Musculoskeletal chest pain Grade 3, GEN1046-related (GEN1046 + 75 mg/m^2 Docetaxel): 0; Musculoskeletal chest pain Grade 4, GEN1046-related (GEN1046 + 75 mg/m^2 Docetaxel): 0; Musculoskeletal chest pain Grade 5, GEN1046-related (GEN1046 + 75 mg/m^2 Docetaxel): 0; Nausea Grade 1, GEN1046-related (GEN1046 + 75 mg/m^2 Docetaxel): 0; Nausea Grade 2, GEN1046-related (GEN1046 + 75 mg/m^2 Docetaxel): 1; Nausea Grade 3, GEN1046-related (GEN1046 + 75 mg/m^2 Docetaxel): 0; Nausea Grade 4, GEN1046-related (GEN1046 + 75 mg/m^2 Docetaxel): 0; Nausea Grade 5, GEN1046-related (GEN1046 + 75 mg/m^2 Docetaxel): 0; Neutrophil count decreased Grade 1, GEN1046-related (GEN1046 + 75 mg/m^2 Docetaxel): 0; Neutrophil count decreased Grade 2, GEN1046-related (GEN1046 + 75 mg/m^2 Docetaxel): 0; Neutrophil count decreased Grade 3, GEN1046-related (GEN1046 + 75 mg/m^2 Docetaxel): 0; Neutrophil count decreased Grade 4, GEN1046-related (GEN1046 + 75 mg/m^2 Docetaxel): 1; Neutrophil count decreased Grade 5, GEN1046-related (GEN1046 + 75 mg/m^2 Docetaxel): 0; Palmar plantar erythrodysesthesia Syndrome (PPE) Grade 1, GEN1046-related (GEN1046 + 75 mg/m^2 Docetaxel): 1; Palmar plantar erythrodysesthesia Syndrome (PPE) Grade 2, GEN1046-related (GEN1046 + 75 mg/m^2 Docetaxel): 0; Palmar plantar erythrodysesthesia Syndrome (PPE) Grade 3, GEN1046-related (GEN1046 + 75 mg/m^2 Docetaxel): 0; Palmar plantar erythrodysesthesia Syndrome (PPE) Grade 4, GEN1046-related (GEN1046 + 75 mg/m^2 Docetaxel): 0; Palmar plantar erythrodysesthesia Syndrome (PPE) Grade 5, GEN1046-related (GEN1046 + 75 mg/m^2 Docetaxel): 0; Pruritus Grade 1, GEN1046-related (GEN1046 + 75 mg/m^2 Docetaxel): 1; Pruritus Grade 2, GEN1046-related (GEN1046 + 75 mg/m^2 Docetaxel): 0; Pruritus Grade 3, GEN1046-related (GEN1046 + 75 mg/m^2 Docetaxel): 0; Pruritus Grade 4, GEN1046-related (GEN1046 + 75 mg/m^2 Docetaxel): 0; Pruritus Grade 5, GEN1046-related (GEN1046 + 75 mg/m^2 Docetaxel): 0; Total treated subjects with related TEAEs Grade 1, GEN1046-related (GEN1046 + 75 mg/m^2 Docetaxel): 4; Total treated subjects with related TEAEs Grade 2, GEN1046-related (GEN1046 + 75 mg/m^2 Docetaxel): 4; Total treated subjects with related TEAEs Grade 3, GEN1046-related (GEN1046 + 75 mg/m^2 Docetaxel): 2; Total treated subjects with related TEAEs Grade 4, GEN1046-related (GEN1046 + 75 mg/m^2 Docetaxel): 1; Total treated subjects with related TEAEs Grade 5, GEN1046-related (GEN1046 + 75 mg/m^2 Docetaxel): 0; Vomiting Grade 1, GEN1046-related (GEN1046 + 75 mg/m^2 Docetaxel): 1; Vomiting Grade 2, GEN1046-related (GEN1046 + 75 mg/m^2 Docetaxel): 0; Vomiting Grade 3, GEN1046-related (GEN1046 + 75 mg/m^2 Docetaxel): 0; Vomiting Grade 4, GEN1046-related (GEN1046 + 75 mg/m^2 Docetaxel): 0; Vomiting Grade 5, GEN1046-related (GEN1046 + 75 mg/m^2 Docetaxel): 0; Hepatotoxicity [1]: No reported drug-related hepatoxicities; Immune-related toxicities [1]: None reported; Serious adverse events related to GEN1046 (dose limiting toxicity period, in combination with Docetaxel): No serious adverse events; Dose Limiting Toxicity (with Docetaxel 55 mg/m^2 or 75 mg/m^2): No Dose Limiting Toxicity reported

From patent publication US20240109972A1, “ANTIBODY AND TAXANE COMBINATION THERAPY” (Genmab A/S, priority 2020, published 2024)
